Source: patent US20150328292A1, “CASPASE POLYPEPTIDES HAVING MODIFIED ACTIVITY AND USES THEREOF” (BELLICUM PHARMACEUTICALS, INC., priority 2014, published 2015)
Substitutions are numbered along the chain they refer to. Numbers in names are those of the source. Active and inactive are the words of the source; unless stated, no cut-off is given here.

B1: D327G: chimeric modified caspase-9 polypeptide variant (protein)
chain: VDGFGDVGALESLRGNADLAYILSMEPCGHCLIINNVNFCRESGLRTRTGSNIDCEKLRRRFSSLHFMVEVKGDLTAKKMVLALLELARQDHGALDCCVVVILSHGCQASHLQFPGAVYGTDGCPVSVEKIVNIFNGTSCPSLGGKPKLFFIQACGGEQKDHGFEVASTSPEDESPGSNPEPDATPFQEGLRTFGQLDAISSLPTPSDIFVSYSTFPGFVSWRDPKSGSWYVETLDDIFEQWAHSEDLQSLLLRVANAVSVKGIYKQMPGCFNFLRKKLFFKTSASRA
B2: A331K: chimeric modified caspase-9 polypeptide variant (protein)
chain: B1 chain with G195D, A199K
B3: D327K: chimeric modified caspase-9 polypeptide variant (protein)
chain: B1 chain with G195K
B4: Q328K: chimeric modified caspase-9 polypeptide variant (protein)
chain: B1 chain with G195D, Q196K
B5: L329G: chimeric modified caspase-9 polypeptide variant (protein)
chain: B1 chain with G195D, L197G
B6: Q328R: chimeric modified caspase-9 polypeptide variant (protein)
chain: B1 chain with G195D, Q196R
B7: T317C: chimeric modified caspase-9 polypeptide variant (protein)
chain: B1 chain with T185C, G195D
B8: L329K: chimeric modified caspase-9 polypeptide variant (protein)
chain: B1 chain with G195D, L197K
B9: F326K: chimeric modified caspase-9 polypeptide variant (protein)
chain: B1 chain with F194K, G195D
B10: D327R: chimeric modified caspase-9 polypeptide variant (protein)
chain: B1 chain with G195R
B11: N405A: chimeric modified caspase-9 polypeptide variant (protein, UniProt P55211 1-416, looked up, variant N405A)
chain: MDEADRRLLRRCRLRLVEELQVDQLWDALLSRELFRPHMIEDIQRAGSGSRRDQARQLIIDLETRGSQALPLFISCLEDTGQDMLASFLRTNRQAAKLSKPTLENLTPVVLRPEIRKPEVLRPETPRPVDIGSGGFGDVGALESLRGNADLAYILSMEPCGHCLIINNVNFCRESGLRTRTGSNIDCEKLRRRFSSLHFMVEVKGDLTAKKMVLALLELAQQDHGALDCCVVVILSHGCQASHLQFPGAVYGTDGCPVSVEKIVNIFNGTSCPSLGGKPKLFFIQACGGEQKDHGFEVASTSPEDESPGSNPEPDATPFQEGLRTFDQLDAISSLPTPSDIFVSYSTFPGFVSWRDPKSGSWYVETLDDIFEQWAHSEDLQSLLLRVANAVSVKGIYKQMPGCFAFLRKKLFFKTS
modifications: chimeric, fused to FKBP12v36
notes: chimeric modified caspase-9 polypeptide variant
B12: G402Y: chimeric modified caspase-9 polypeptide variant (protein, UniProt P55211 1-416, looked up, variant G402Y)
chain: B11 chain with G402Y, A405N
modifications: chimeric with dimerization domain
notes: as for B11
B13: N405T: chimeric modified caspase-9 polypeptide variant (protein, UniProt P55211 1-416, looked up, variant N405T)
chain: B11 chain with A405T
modifications: chimeric, fused to FKBP12v36
notes: as for B11
B14: G402Q: chimeric modified caspase-9 polypeptide variant (protein, UniProt P55211 1-416, looked up, variant G402Q)
chain: B11 chain with G402Q, A405N
modifications: chimeric, fused to FKBP12v36
notes: as for B11
B15: G402I: chimeric modified caspase-9 polypeptide variant (protein, UniProt P55211 1-416, looked up, variant G402I)
chain: B11 chain with G402I, A405N
modifications: chimeric, fused to FKBP12v36
notes: as for B11
B16: ^316ATPF^319AVPI: caspase-9 with ATPF tetrapeptide replaced by SMAC/DIABLO AVPI (protein, UniProt P55211 1-416, looked up, variant T317V F319I)
chain: B11 chain with T317V, F319I, A405N
B17: C403P: chimeric modified caspase-9 polypeptide variant (protein, UniProt P55211 1-416, looked up, variant C403P)
chain: B11 chain with C403P, A405N
modifications: chimeric, fused to FKBP12v36
notes: as for B11
B18: D315A: chimeric modified caspase-9 polypeptide variant (protein, UniProt P55211 1-416, looked up, variant D315A)
chain: B11 chain with D315A, A405N
modifications: chimeric, fused to FKBP12v36
notes: as for B11
B19: ^402GCFNF^406ISAQT: caspase-9 with 402-406 residues replaced by those of Caspase-10 (protein, UniProt P55211 1-416, looked up, variant G402I C403S F404A N405Q F406T)
chain: B11 chain with G402I, C403S, F404A, A405Q, F406T
modifications: residues from caspase-10
B20: D315A-D330A: chimeric modified caspase-9 polypeptide double mutant (protein, UniProt P55211 1-416, looked up, variant D315A D330A)
chain: B11 chain with D315A, D330A, A405N
modifications: chimeric, fused to FKBP12v36
notes: chimeric modified caspase-9 polypeptide double mutant
B21: N405F: chimeric modified caspase-9 polypeptide variant (protein, UniProt P55211 1-416, looked up, variant N405F)
chain: B11 chain with A405F
modifications: chimeric, fused to FKBP12v36
notes: as for B11

Test system: HEK293T/16 cells
Assay: SEAP reporter-based surrogate killing assay (basal activity and AP1903 IC50)
Assay type: cell-based, human
Conditions: AP1903-independent SEAP activity, vs wild type
Description: FIG. 45 provides a schematic of an analysis of SEAP assays. […] of the mixture was seeded onto each well of a 96-well plate. […] For the assay, 4-methylumbelliferyl phosphate substrate was hydrolyzed by SEAP to 4-methylumbelliferon, a metabolite that can be excited with 364 nm and detected with an emission filter of 448 nm. Since SEAP is used as a marker for cell viability, reduced SEAP reading corresponds with increased icaspase-9 activities.
Early passage HEK293T/16 cells (ATCC, Manassas, Va.) were maintained in IMDM, GlutaMAX™ (Life Technologies, Carlsbad, Calif.) supplemented with 10% FBS, 100 U/mL penicillin, and 100 […] until transfection in a humidified, 37° C., 5% CO2/95% air atmosphere. Cells in logarithmic-phase growth were transiently transfected with 800 ng to 2 μg of expression plasmid encoding iCasp9 mutants and 500 ng of an expression plasmid encoding SRα promoter driven SEAP per million cells in 15-mL conical tubes. […] GeneJammer® Transfection Reagent at a ratio of 3 μl per ug of plasmid DNA was used to transiently transfect HEK293T/16 cells in the absence of antibiotics. 100 μl or 2 mL of the transfection mixture was added to each well in 96-well or 6-well plate, respectively.
Briefly, after 65° C. heat denaturation for 45 minutes to reduce background caused by endogenous (and serum-derived) alkaline phosphatases that are sensitive to heat, 5 μl of supernatants was added to 95 μl of PBS and added to 100 μl of substrate buffer, containing 1 μl of 100 mM 4-methylumbelliferyl phosphate (4-MUP; Sigma, St. Louis, Mo.) re-suspended in 2 M diethanolamine. Hydrolysis of 4-MUP by SEAP produces a fluorescent […] with excitation/emission (355/460 nm), which can be easily measured. Assays were performed in black opaque 96-well plates to minimize fluorescence leakage between wells (FIG. 45).

| Molecule | basal activity / basal signaling (in words) |
| --- | --- |
| B1 | did not lower basal activity |
| B2 | did not lower basal activity |
| B3 | did not lower basal activity |
| B4 | did not lower basal activity |
| B5 | did not lower basal activity |
| B6 | did not lower basal activity |
| B7 | no effect |
| B8 | did not lower basal activity |
| B9 | did not lower basal activity |
| B10 | did not lower basal activity |
| B11 | no effect |
| B12 | catalytically inactive |
| B13 | increased basal activity |
| B14 | catalytically inactive |
| B15 | catalytically inactive |
| B16 | no effect |
| B17 | catalytically inactive |
| B18 | reduced basal activity |
| B19 | reduced basal activity |
| B20 | inactive |
| B21 | lowered basal activity |
